Experimental data published in paper PMC6820745, “Structural and thermodynamic basis for the recognition of the substrate-binding cleft on hen egg lysozyme by a single-domain antibody” (Scientific Reports, 2019).
Values belong to the binder of their own block, whether it stands above or below them.

Tests used:
Conditions in all cases: both partners purified
hen egg lysozyme [1] = biological target: T1, hen egg lysozyme (hen, UniProt P00698 19-147); assay: SPR; HEL immobilised on CM5 chip (200 RU), VHH flowed over, multi-cycle, 14 °C, PBS with 0.005% Tween 20, global fit to a 1:1 binding model
T1 construct: hen egg lysozyme (HEL), bought, used without further purification; also called HEL; source: bought: Wako Pure Chemical (Cat. No. 126-02671)
T1 sequence (P00698 19-147): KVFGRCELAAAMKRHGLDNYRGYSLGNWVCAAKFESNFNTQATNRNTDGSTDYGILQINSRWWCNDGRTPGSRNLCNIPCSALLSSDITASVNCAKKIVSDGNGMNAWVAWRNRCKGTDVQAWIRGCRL

hen egg lysozyme [2] = biological target: T1, hen egg lysozyme; assay: SPR; HEL immobilised on CM5 chip (200 RU), VHH flowed over, multi-cycle, 22 °C, PBS with 0.005% Tween 20, global fit to a 1:1 binding model
hen egg lysozyme [3] = biological target: T1, hen egg lysozyme; assay: SPR; HEL immobilised on CM5 chip (200 RU), VHH flowed over, multi-cycle, 18 °C, PBS with 0.005% Tween 20, global fit to a 1:1 binding model
hen egg lysozyme [4] = biological target: T1, hen egg lysozyme; assay: SPR; HEL immobilised on CM5 chip (200 RU), VHH flowed over, multi-cycle, 30 °C, PBS with 0.005% Tween 20, global fit to a 1:1 binding model
hen egg lysozyme [5] = biological target: T1, hen egg lysozyme; assay: SPR; HEL immobilised on CM5 chip (200 RU), VHH flowed over, multi-cycle, 26 °C, PBS with 0.005% Tween 20, global fit to a 1:1 binding model
hen egg lysozyme [6] = biological target: T1, hen egg lysozyme; assay: SPR; HEL immobilised on CM5 chip (200 RU), VHH flowed over, multi-cycle, 10 °C, PBS with 0.005% Tween 20, global fit to a 1:1 binding model
hen egg lysozyme [7] = biological target: T1, hen egg lysozyme; assay: ITC; iTC200, 25 °C, PBS; VHH (10 µM) in the cell titrated with HEL (100 µM); 1:1 binding model; two independent measurements
hen egg lysozyme [8] = biological target: T2, hen egg lysozyme (Gallus gallus (hen), UniProt P00698); assay: SPR; Biacore T200; HEL immobilised on CM5 chip (200 RU); VHH flowed over; 25 °C; PBS with 0.005% Tween 20; global fit to a 1:1 binding model
T2 construct: hen egg lysozyme (lysozyme C), bought from Wako Pure Chemical; also called HEL; source: bought: Wako Pure Chemical (Cat. No. 126-02671), used without further purification
T2 sequence (P00698 19-147): as above
Outline: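 Binding of the His6-tagged single-domain antibody, expressed in E. coli BL21(DE3) and purified by Ni-NTA and size-exclusion chromatography, was measured by surface plasmon resonance on a Biacore T200 against hen egg lysozyme immobilised on a CM5 chip (200 RU). Runs were at 25 °C in PBS with 0.005% Tween 20, with 300 s contact, 600 s dissociation and regeneration in 1.0 M Arg-HCl pH 4.4. Antibody concentrations were adjusted per mutant. Kd, kon and koff came from global fitting to a 1:1 binding model in BiaEvaluation.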

hen egg lysozyme [9] = biological target: T2, hen egg lysozyme; assay: SPR; as a1, but KD from the responses in equilibrium (Scatchard plot, 1:1 model); HEL immobilised; 25 °C; PBS with 0.005% Tween 20
hen egg lysozyme [10] = biological target: T2, hen egg lysozyme; assay: SPR; HEL immobilised; measured at several temperatures; van't Hoff analysis (non-linear regression); PBS with 0.005% Tween 20; KD given for 25 °C from the van't Hoff free energy
hen egg lysozyme [11] = biological target: T2, hen egg lysozyme; assay: ITC; iTC200; 25 °C; PBS; VHH (10 uM) in the cell titrated with HEL (100 uM); 1:1 binding model
hen egg lysozyme [12] = biological target: T1, hen egg lysozyme; assay: SPR; HEL immobilised on CM5 chip (200 RU), VHH flowed over, multi-cycle, 18 °C, PBS with 0.005% Tween 20, global fit to a 1:1 binding model; remark: listed apart in the source
hen egg lysozyme [13] = biological target: T1, hen egg lysozyme; assay: SPR; HEL immobilised on CM5 chip (200 RU), VHH flowed over, 14 °C, PBS with 0.005% Tween 20, steady-state responses (Scatchard plot), 1:1 binding model
hen egg lysozyme [14] = biological target: T1, hen egg lysozyme; assay: SPR; HEL immobilised on CM5 chip (200 RU), VHH flowed over, 26 °C, PBS with 0.005% Tween 20, steady-state responses (Scatchard plot), 1:1 binding model
hen egg lysozyme [15] = biological target: T1, hen egg lysozyme; assay: SPR; HEL immobilised on CM5 chip (200 RU), VHH flowed over, multi-cycle, 26 °C, PBS with 0.005% Tween 20, global fit to a 1:1 binding model; remark: listed apart in the source
hen egg lysozyme [16] = biological target: T1, hen egg lysozyme; assay: SPR; HEL immobilised on CM5 chip (200 RU), VHH flowed over, 10 °C, PBS with 0.005% Tween 20, steady-state responses (Scatchard plot), 1:1 binding model
hen egg lysozyme [17] = biological target: T1, hen egg lysozyme; assay: SPR; HEL immobilised on CM5 chip (200 RU), VHH flowed over, multi-cycle, 10 °C, PBS with 0.005% Tween 20, global fit to a 1:1 binding model; remark: listed apart in the source
hen egg lysozyme [18] = biological target: T1, hen egg lysozyme; assay: SPR; HEL immobilised on CM5 chip (200 RU), VHH flowed over, multi-cycle, 14 °C, PBS with 0.005% Tween 20, global fit to a 1:1 binding model; remark: listed apart in the source
hen egg lysozyme [19] = biological target: T1, hen egg lysozyme; assay: SPR; HEL immobilised on CM5 chip (200 RU), VHH flowed over, multi-cycle, 22 °C, PBS with 0.005% Tween 20, global fit to a 1:1 binding model; remark: listed apart in the source
hen egg lysozyme [20] = biological target: T1, hen egg lysozyme; assay: SPR; HEL immobilised on CM5 chip (200 RU), VHH flowed over, 18 °C, PBS with 0.005% Tween 20, steady-state responses (Scatchard plot), 1:1 binding model
hen egg lysozyme [21] = biological target: T1, hen egg lysozyme; assay: SPR; HEL immobilised on CM5 chip (200 RU), VHH flowed over, 30 °C, PBS with 0.005% Tween 20, steady-state responses (Scatchard plot), 1:1 binding model
hen egg lysozyme [22] = biological target: T1, hen egg lysozyme; assay: SPR; HEL immobilised on CM5 chip (200 RU), VHH flowed over, 22 °C, PBS with 0.005% Tween 20, steady-state responses (Scatchard plot), 1:1 binding model

B1: D3-L11 (wild type), VHH specific for hen egg lysozyme (VHH)
VHH: DVQLVESGGGSVQAGGSLRLSCAASGSTDSIEYMTWFRQAPGKAREGVAALYTHTGNTYYTDSVKGRFTISQDKAKNMAYLRMDSVKSEDTAIYTCGATRKYVPVRFALDQSSYDYWGQGTQVTVSS
notes: also called WT; WT antibody; source: E. coli BL21(DE3), purified (Ni-NTA, SEC)
Kd (hen egg lysozyme [1]): 0.0395 nM | koff (hen egg lysozyme [1]): 0.000139 s⁻¹ | kon (hen egg lysozyme [1]): 3.52e+06 M⁻¹ s⁻¹ | Kd (hen egg lysozyme [2]): 0.0897 nM | koff (hen egg lysozyme [2]): 0.000492 s⁻¹ | kon (hen egg lysozyme [2]): 5.48e+06 M⁻¹ s⁻¹ | Kd (hen egg lysozyme [3]): 0.0549 nM | koff (hen egg lysozyme [3]): 0.000274 s⁻¹ | kon (hen egg lysozyme [3]): 4.99e+06 M⁻¹ s⁻¹ | Kd (hen egg lysozyme [4]): 0.177 nM | koff (hen egg lysozyme [4]): 0.0015 s⁻¹ | kon (hen egg lysozyme [4]): 8.48e+06 M⁻¹ s⁻¹ | Kd (hen egg lysozyme [5]): 0.127 nM | koff (hen egg lysozyme [5]): 0.000847 s⁻¹ | kon (hen egg lysozyme [5]): 6.81e+06 M⁻¹ s⁻¹ | Kd (hen egg lysozyme [6]): 0.0267 nM | koff (hen egg lysozyme [6]): 7.52e-05 s⁻¹ | kon (hen egg lysozyme [6]): 2.81e+06 M⁻¹ s⁻¹ | Kd (hen egg lysozyme [7]): 3.8 nM | stoichiometry N (hen egg lysozyme [7]): 0.88

B5: D3-L11 D115A (VHH)
VHH: DVQLVESGGGSVQAGGSLRLSCAASGSTDSIEYMTWFRQAPGKAREGVAALYTHTGNTYYTDSVKGRFTISQDKAKNMAYLRMDSVKSEDTAIYTCGATRKYVPVRFALDQSSYAYWGQGTQVTVSS
notes: as the VHH chain of m2 with the stated change; source: E. coli BL21(DE3), purified (Ni-NTA, SEC)
Kd (hen egg lysozyme [8]): 0.156 nM | koff (hen egg lysozyme [8]): 0.000956 s⁻¹ | kon (hen egg lysozyme [8]): 6.11e+06 M⁻¹ s⁻¹

B6: D3-L11 (VHH)
VHH: DVQLVESGGGSVQAGGSLRLSCAASGSTDSIEYMTWFRQAPGKAREGVAALYTHTGNTYYTDSVKGRFTISQDKAKNMAYLRMDSVKSEDTAIYTCGATRKYVPVRFALDQSSYDYWGQGTQVTVSS
notes: VHH D3-L11 specific for HEL; Synthetic gene in pRA2 with a pelB signal peptide at the N-terminus and a His6-tag at the C-terminus; also called WT; WT antibody; source: E. coli BL21(DE3), purified (Ni-NTA, SEC)
dH (van't Hoff) (hen egg lysozyme [10]): -17 kcal/mol | Kd (hen egg lysozyme [8]): 0.129 nM | koff (hen egg lysozyme [8]): 0.000785 s⁻¹ | kon (hen egg lysozyme [8]): 6.1e+06 M⁻¹ s⁻¹ | dH (hen egg lysozyme [11]): -21.4 ± 0.6 kcal/mol

B7: D3-L11 T55A (VHH)
VHH: DVQLVESGGGSVQAGGSLRLSCAASGSTDSIEYMTWFRQAPGKAREGVAALYTHAGNTYYTDSVKGRFTISQDKAKNMAYLRMDSVKSEDTAIYTCGATRKYVPVRFALDQSSYDYWGQGTQVTVSS
notes: as for B5
Kd (hen egg lysozyme [8]): 2.99 nM | koff (hen egg lysozyme [8]): 0.0113 s⁻¹ | kon (hen egg lysozyme [8]): 3.77e+06 M⁻¹ s⁻¹

B8: D3-L11 F107A (VHH)
VHH: DVQLVESGGGSVQAGGSLRLSCAASGSTDSIEYMTWFRQAPGKAREGVAALYTHTGNTYYTDSVKGRFTISQDKAKNMAYLRMDSVKSEDTAIYTCGATRKYVPVRAALDQSSYDYWGQGTQVTVSS
notes: as for B5
Kd (hen egg lysozyme [8]): 1.63 nM | koff (hen egg lysozyme [8]): 0.0147 s⁻¹ | kon (hen egg lysozyme [8]): 8.99e+06 M⁻¹ s⁻¹

B10: D3-L11 R106A (VHH)
VHH: DVQLVESGGGSVQAGGSLRLSCAASGSTDSIEYMTWFRQAPGKAREGVAALYTHTGNTYYTDSVKGRFTISQDKAKNMAYLRMDSVKSEDTAIYTCGATRKYVPVAFALDQSSYDYWGQGTQVTVSS
notes: as for B5
Kd (hen egg lysozyme [8]): 1.65 nM | koff (hen egg lysozyme [8]): 0.00183 s⁻¹ | kon (hen egg lysozyme [8]): 1.11e+06 M⁻¹ s⁻¹

B12: D3-L11 Y52A (VHH)
VHH: DVQLVESGGGSVQAGGSLRLSCAASGSTDSIEYMTWFRQAPGKAREGVAALATHTGNTYYTDSVKGRFTISQDKAKNMAYLRMDSVKSEDTAIYTCGATRKYVPVRFALDQSSYDYWGQGTQVTVSS
notes: the substitution is still to be applied; source: E. coli BL21(DE3), purified (Ni-NTA, SEC)
Kd (hen egg lysozyme [12]): 33 nM | koff (hen egg lysozyme [12]): 0.0731 s⁻¹ | kon (hen egg lysozyme [12]): 2.21e+06 M⁻¹ s⁻¹ | Kd (hen egg lysozyme [13]): 71.4 ± 5.3 nM | Kd (hen egg lysozyme [14]): 119 ± 9 nM | Kd (hen egg lysozyme [15]): 52.9 nM | koff (hen egg lysozyme [15]): 0.144 s⁻¹ | kon (hen egg lysozyme [15]): 2.72e+06 M⁻¹ s⁻¹ | Kd (hen egg lysozyme [16]): 60.5 ± 4.3 nM | Kd (hen egg lysozyme [17]): 21.2 nM | koff (hen egg lysozyme [17]): 0.037 s⁻¹ | kon (hen egg lysozyme [17]): 1.74e+06 M⁻¹ s⁻¹ | Kd (hen egg lysozyme [18]): 26.5 nM | koff (hen egg lysozyme [18]): 0.0515 s⁻¹ | kon (hen egg lysozyme [18]): 1.94e+06 M⁻¹ s⁻¹ | Kd (hen egg lysozyme [19]): 40.8 nM | koff (hen egg lysozyme [19]): 0.102 s⁻¹ | kon (hen egg lysozyme [19]): 2.5e+06 M⁻¹ s⁻¹ | Kd (hen egg lysozyme [20]): 83.4 ± 6.5 nM | Kd (hen egg lysozyme [7]): 1000 nM | stoichiometry N (hen egg lysozyme [7]): 0.93 | Kd (hen egg lysozyme [21]): 142 ± 10 nM | Kd (hen egg lysozyme [22]): 99.2 ± 7.4 nM

Continued, values first:

Kd (hen egg lysozyme [8]): 13 nM | koff (hen egg lysozyme [8]): 0.226 s⁻¹ | kon (hen egg lysozyme [8]): 1.74e+07 M⁻¹ s⁻¹ | Kd (hen egg lysozyme [9]): 44.8 ± 19 nM
B2: D3-L11 P104A (VHH)
VHH: DVQLVESGGGSVQAGGSLRLSCAASGSTDSIEYMTWFRQAPGKAREGVAALYTHTGNTYYTDSVKGRFTISQDKAKNMAYLRMDSVKSEDTAIYTCGATRKYVAVRFALDQSSYDYWGQGTQVTVSS
notes: as for B5

Kd (hen egg lysozyme [8]): 2.65 nM | koff (hen egg lysozyme [8]): 0.00921 s⁻¹ | kon (hen egg lysozyme [8]): 3.48e+06 M⁻¹ s⁻¹
B3: D3-L11 H54A (VHH)
VHH: DVQLVESGGGSVQAGGSLRLSCAASGSTDSIEYMTWFRQAPGKAREGVAALYTATGNTYYTDSVKGRFTISQDKAKNMAYLRMDSVKSEDTAIYTCGATRKYVPVRFALDQSSYDYWGQGTQVTVSS
notes: as for B5

Kd (hen egg lysozyme [8]): 1.87 nM | koff (hen egg lysozyme [8]): 0.012 s⁻¹ | kon (hen egg lysozyme [8]): 6.43e+06 M⁻¹ s⁻¹
B4: D3-L11 E32A (VHH)
VHH: DVQLVESGGGSVQAGGSLRLSCAASGSTDSIAYMTWFRQAPGKAREGVAALYTHTGNTYYTDSVKGRFTISQDKAKNMAYLRMDSVKSEDTAIYTCGATRKYVPVRFALDQSSYDYWGQGTQVTVSS
notes: as for B5

Kd (hen egg lysozyme [8]): 1.61 nM | koff (hen egg lysozyme [8]): 0.00831 s⁻¹ | kon (hen egg lysozyme [8]): 5.17e+06 M⁻¹ s⁻¹
B9: D3-L11 S113A (VHH)
VHH: DVQLVESGGGSVQAGGSLRLSCAASGSTDSIEYMTWFRQAPGKAREGVAALYTHTGNTYYTDSVKGRFTISQDKAKNMAYLRMDSVKSEDTAIYTCGATRKYVPVRFALDQSAYDYWGQGTQVTVSS
notes: as for B5

Kd (hen egg lysozyme [8]): 0.0911 nM | koff (hen egg lysozyme [8]): 0.000687 s⁻¹ | kon (hen egg lysozyme [8]): 7.54e+06 M⁻¹ s⁻¹
B11: D3-L11 K101A (VHH)
VHH: DVQLVESGGGSVQAGGSLRLSCAASGSTDSIEYMTWFRQAPGKAREGVAALYTHTGNTYYTDSVKGRFTISQDKAKNMAYLRMDSVKSEDTAIYTCGATRAYVPVRFALDQSSYDYWGQGTQVTVSS
notes: as for B5
